This assay addresses native Miro2 (UniProt Q8JZN7 1-620). The assay is described as follows: proximity ligation.

native Miro2, sequence (Q8JZN7 whole entry): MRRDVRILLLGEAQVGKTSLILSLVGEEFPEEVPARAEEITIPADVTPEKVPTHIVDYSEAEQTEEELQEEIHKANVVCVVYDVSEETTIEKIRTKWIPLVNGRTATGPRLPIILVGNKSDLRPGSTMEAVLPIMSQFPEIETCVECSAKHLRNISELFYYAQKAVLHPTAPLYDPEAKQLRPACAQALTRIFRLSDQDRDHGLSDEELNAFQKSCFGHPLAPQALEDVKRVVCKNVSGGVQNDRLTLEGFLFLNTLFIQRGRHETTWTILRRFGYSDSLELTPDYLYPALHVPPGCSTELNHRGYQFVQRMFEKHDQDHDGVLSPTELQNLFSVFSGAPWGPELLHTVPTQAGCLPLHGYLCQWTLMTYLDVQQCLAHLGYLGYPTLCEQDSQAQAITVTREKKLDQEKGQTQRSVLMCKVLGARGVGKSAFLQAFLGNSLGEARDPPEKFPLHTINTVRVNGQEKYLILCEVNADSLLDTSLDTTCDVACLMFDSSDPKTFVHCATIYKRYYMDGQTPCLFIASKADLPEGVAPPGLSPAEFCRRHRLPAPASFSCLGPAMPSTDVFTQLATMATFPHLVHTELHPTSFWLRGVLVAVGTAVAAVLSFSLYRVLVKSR

B1: Mic19/CHCHD3 (natural protein)
chain: MGGTASTRRVTFEADENENITVVKGIRLSENVIDRMKESSPSGSKSQRYSSVYGASVSDEDLKRRVAEELALEQAKKESEHQRRLKQARDLERERAAANEQLTRAVLRERISSEEERMKAKHLARQLEEKDRVMRKQDAFYKEQLARLEERSSEFYKVTTEEYQKAAEEVEAKFKRYEYHPVCADLQTKILQCYRQNTQQTLSCSALASQYMHCVNHAKQSMLEKGG
Take B1: the “fold enrichment of PLA signal over single antibodies” value was 4 fold.

B2: Sam50 (natural protein)
chain: MGTVHARSLEPLPSSGTDFGALGEEAEFVEVEPEAKQEILENKDVVVQHVHFDGLGRTKDDIIICEIGEVFKAKNLIEVMRRSHEAREKLLRLGIFRQVDVLIDTCHGEDALPNGLDVTFEVTELRRLTGSYNTMVGNNEGSMVLGLKLPNLLGRAEKVTFQFSYGTKETSYGLSFFKPQPGNFERNFSVNLYKVTGQFPWSSLRETDRGVSAEYSFPLWKTSHTVKWEGVWRELGCLSRTASFAVRKESGHSLKSSLSHAMVIDSRNSSILPRRGALFKVNQELAGYTGGDVSFIKEDFELQLNKPLALDSVFSTSLWGGMLVPIGDKPSSIADRFYLGGPTSVRGFSMHSIGPQSEGDYLGGEAYWAGGLHLYTPLPFRPGQGGFGELFRTHFFLNAGNLCNLNYGEGPKAHIRKLAECIRWSYGAGVVLRLGNIARLELNYCIPMGVQGGDRICDGVQFGAGIRFL
With B2, the “fold enrichment of PLA signal over single antibodies” value is 4 fold.
